Biological target: CD33 (UniProt P20138)
UniProt P20138, sequence (P20138 18-364): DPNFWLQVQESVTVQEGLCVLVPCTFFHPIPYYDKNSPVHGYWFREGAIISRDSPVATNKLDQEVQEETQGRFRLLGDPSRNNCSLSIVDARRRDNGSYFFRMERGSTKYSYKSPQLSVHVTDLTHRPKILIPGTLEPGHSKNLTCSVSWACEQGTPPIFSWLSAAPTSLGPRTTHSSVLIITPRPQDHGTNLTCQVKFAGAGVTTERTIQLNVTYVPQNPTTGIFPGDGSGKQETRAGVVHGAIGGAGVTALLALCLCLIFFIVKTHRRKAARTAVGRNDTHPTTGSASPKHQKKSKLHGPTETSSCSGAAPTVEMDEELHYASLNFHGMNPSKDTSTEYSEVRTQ

**Q.** “cam16-wt15–33 TriKE (second-generation Tri-specific Killer Engager) (from UniProt P40933 49-162)” was tested. Which Kd did it give?
**A.** 0.0256 µM
